Measured values reported in patent publication US20250235548A1, “ANTIBODY-DRUG CONJUGATES TARGETING NAPI2B AND METHODS OF USE” (Zymeworks BC Inc., priority 2022, published 2025).

Key:
[1] = molecular target: human sodium-dependent phosphate transporter 2B (NaPi2b) (human) (UniProt O95436); assay: flow cytometry competition, HEK293-6e cells expressing human NaPi2b; row antibody unlabeled at 100 ug/mL (the reference of the calculation); competitor: AF647-labeled v23855 at 1 ug/mL
[2] = molecular target: human sodium-dependent phosphate transporter 2B (NaPi2b) (human) (UniProt O95436); assay: flow cytometry competition, HEK293-6e cells expressing human NaPi2b; row antibody unlabeled at 100 ug/mL (the reference of the calculation); competitor: AF647-labeled v18992 (MX35) at 1 ug/mL
[3] = molecular target: human sodium-dependent phosphate transporter 2B (NaPi2b) (human) (UniProt O95436); assay: flow cytometry competition, HEK293-6e cells expressing human NaPi2b; row antibody unlabeled at 100 ug/mL (the reference of the calculation); competitor: AF647-labeled v18993 (lifastuzumab) at 1 ug/mL
[4] = molecular target: human sodium-dependent phosphate transporter 2B (NaPi2b) (human) (UniProt O95436); assay: flow cytometry competition, HEK293-6e cells expressing human NaPi2b; row antibody unlabeled at 100 ug/mL (the reference of the calculation); competitor: AF647-labeled v16955 (negative control) at 1 ug/mL
[5] = molecular target: Fcγ receptor (FcγR) on the surface of immune effector cells; assay: cell-based or functional assay

Chain of human sodium-dependent phosphate transporter 2B (NaPi2b) (human) (O95436 whole entry): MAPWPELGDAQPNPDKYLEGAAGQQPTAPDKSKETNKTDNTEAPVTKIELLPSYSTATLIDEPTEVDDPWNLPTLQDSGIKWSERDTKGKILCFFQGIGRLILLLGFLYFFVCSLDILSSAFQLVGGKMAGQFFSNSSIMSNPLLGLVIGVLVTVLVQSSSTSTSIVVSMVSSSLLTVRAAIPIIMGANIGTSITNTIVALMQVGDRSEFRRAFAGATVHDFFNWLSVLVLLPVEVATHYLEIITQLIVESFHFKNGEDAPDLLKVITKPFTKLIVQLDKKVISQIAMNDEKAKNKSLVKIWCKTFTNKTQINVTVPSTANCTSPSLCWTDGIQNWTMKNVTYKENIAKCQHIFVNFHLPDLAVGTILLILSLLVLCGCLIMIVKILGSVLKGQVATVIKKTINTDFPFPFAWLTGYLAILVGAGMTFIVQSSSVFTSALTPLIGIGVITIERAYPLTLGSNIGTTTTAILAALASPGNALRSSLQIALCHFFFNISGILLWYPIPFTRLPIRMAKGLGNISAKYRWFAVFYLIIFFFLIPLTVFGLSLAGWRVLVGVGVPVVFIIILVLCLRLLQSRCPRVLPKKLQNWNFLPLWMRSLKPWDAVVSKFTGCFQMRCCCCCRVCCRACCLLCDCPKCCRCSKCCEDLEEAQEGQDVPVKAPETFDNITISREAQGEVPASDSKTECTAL

Row | Substance | % Inhibition vs. irrelevant mAb [1] [%] | % Inhibition vs. irrelevant mAb [2] [%] | % Inhibition vs. irrelevant mAb [3] [%] | % Inhibition vs. irrelevant mAb [4] [%] | % ADCC at 0.0192 nM (25 PBMCs:1 IGROV-1) [5] [%] | % ADCC at 0.48 nM (25 PBMCs:1 IGROV-1) [5] [%] | % ADCC at 12 nM (25 PBMCs:1 IGROV-1) [5] [%]
1 | v16955 (Palivizumab), anti-RSV negative control antibody | 0 | 0 | 0 | 0 |  |  | 
2 | v18993 (lifastuzumab) (antibody) |  |  |  |  | 5.96 | 14 | 14.4
